Target: the molecule itself
Experiment: differential scanning calorimetry

B1: PSD95-PDZ3 wild type (third PDZ domain of postsynaptic density-95 protein) (domain or fragment)
chain: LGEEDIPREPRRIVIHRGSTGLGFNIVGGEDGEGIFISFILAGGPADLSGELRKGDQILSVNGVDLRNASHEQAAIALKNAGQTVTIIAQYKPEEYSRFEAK
stoichiometry N: 6

Source: article doi:10.1101/2020.06.24.169607 (bioRxiv, 2020)
